This passage reports response (RU) results from PMC3118792.

The experiment concerns the target mixture of human tenascin and human fibronectin matrix proteins (human). Description: SPR; BIAcore X, CM4 chip with an amine-coupled mixture of human tenascin and human fibronectin (4100 RU); samples injected at 1 µM in HBS (10 mM HEPES, 150 mM NaCl, 3 mM EDTA, 0.05% P20, pH 7.4), 5 µl/minute, 25°C, 1 minute, then 1 minute dissociation; reference cell subtracted.

As to AvidinOX (from UniProt P02701 25-152), the response (RU) was over 2000 RU.
The result for “avidin (from UniProt P02701 25-152) (natural protein)” reads 30 RU.
